± gives the standard deviation of the averaged measurements.
B1: library; a variant is named by its letters at N, in order (parent)
chain: GCUGUCACCGGUGCUUGGUACGUUAUAUUCAGCCGGUCUGAUGAGUCUNNNNNNAGACGAAACAGC

Assays:
(6R,S)-folinic acid [1] = variants of: B1; assay: FACS-Seq fitted mean relative fluorescence mCherry/BFP without ligand (log10 relative fluorescence); HEK293T overexpressing SLC46A1; higher = higher reporter protein expression; conditions: without (6R,S)-folinic acid; ligand present: no
How it was run: (§1)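 Fluorescence figures are normalized fitted normal means of sequenced bin counts. Enriched, lentivirally transduced HEK293T libraries with a ribozyme-switch mCherry reporter and EF1α-BFP were held 48 h with or without ligand, then sorted into 6 mCherry/BFP bins. PCR-amplified, barcoded genomic DNA from each bin was sequenced on MiSeq. Means of log10(mCherry/BFP) were scaled to five spiked-in control ribozymes.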

(6R,S)-folinic acid [2] = variants of: B1; assay: normalized RNA/DNA level without ligand (relative to sTRSVctl = 100) (log10 (% of sTRSVctl)); HEK293T overexpressing SLC46A1; higher = less ribozyme self-cleavage, higher mRNA level; conditions: without (6R,S)-folinic acid; ligand present: no
Method: (§2)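 Hammerhead (sTRSV) ribozyme switch libraries with a ligand aptamer grafted on stem I and a randomized N4-6 loop II, cloned into the 3' UTR of mCherry and transiently transfected into HEK293T cells; RNA-Seq 72 h post transfection with ligand added 1 h before transfection; RNA read count / plasmid DNA read count normalized to the non-cleaving sTRSVctl (x100), log10; sequences with >100 DNA reads. FACS-Seq: lentiviral library sorted into 6 bins after 48 h ligand, log-normal fit mean of mCherry/BFP scaled to controls. Printed sequences are partial switch sequences.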

(6R,S)-folinic acid [3] = variants of: B1; assay: FACS-Seq fitted mean relative fluorescence mCherry/BFP with ligand (log10 relative fluorescence); HEK293T overexpressing SLC46A1; ligand concentration (+) FACS-Seq: 6 mM; higher = higher reporter protein expression; conditions: with (6R,S)-folinic acid; ligand present: yes
How it was run: as §1

(6R,S)-folinic acid [4] = variants of: B1; assay: normalized RNA/DNA level with ligand (relative to sTRSVctl = 100) (log10 (% of sTRSVctl)); HEK293T overexpressing SLC46A1; ligand concentration (+) RNA-Seq: 6 mM; higher = less ribozyme self-cleavage, higher mRNA level; conditions: with (6R,S)-folinic acid; ligand present: yes
Method: as §2

| Variant | FACS-Seq fitted mean (log10) ((6R,S)-folinic acid [1]) | normalized RNA/DNA level without ligand (log10) ((6R,S)-folinic acid [2]) | FACS-Seq fitted mean (log10) ((6R,S)-folinic acid [3]) | normalized RNA/DNA level with ligand (log10) ((6R,S)-folinic acid [4]) |
| --- | --- | --- | --- | --- |
| GCUGUCACCGGUGCUUGGUACGUUAUAUUCAGCCGGUCUGAUGAGUCUGCAGGGAGACGAAACAGC | 0.107 ± 0.12 | 1.9807 ± 0.00024 | 0.128 ± 0.053 | 2.04 ± 0.036 |
| GCUGUCACCGGUGCUUGGUACGUUAUAUUCAGCCGGUCUGAUGAGUCUGCAGGAAGACGAAACAGC | 0.7 ± 0.19 | 1.972 ± 0.0072 | 0.642 ± 0.041 | 2.02 ± 0.023 |
| GCUGUCACCGGUGCUUGGUACGUUAUAUUCAGCCGGUCUGAUGAGUCUGCAGUAAGACGAAACAGC | 0.218 ± 0.051 | 1.98 ± 0.022 | 0.482 ± 0.12 | 2.02 ± 0.038 |
| GCUGUCACCGGUGCUUGGUACGUUAUAUUCAGCCGGUCUGAUGAGUCUUCAGGGAGACGAAACAGC | 0.0969 ± 0.0033 | 1.81 ± 0.032 | 0.351 ± 0.2 | 1.99 ± 0.041 |
| GCUGUCACCGGUGCUUGGUACGUUAUAUUCAGCCGGUCUGAUGAGUCUUCAGGAAGACGAAACAGC | 0.149 ± 0.13 | 1.901 ± 0.011 | -0.0151 ± 0.03 | 1.98 ± 0.032 |
| GCUGUCACCGGUGCUUGGUACGUUAUAUUCAGCCGGUCUGAUGAGUCUUCAGGUAGACGAAACAGC | 0.531 ± 0.015 | 1.9204 ± 0.0013 | 0.603 ± 0.23 | 1.99 ± 0.024 |
| GCUGUCACCGGUGCUUGGUACGUUAUAUUCAGCCGGUCUGAUGAGUCUACAGGUAGACGAAACAGC | 0.385 ± 0.057 | 1.909 ± 0.019 | 0.437 ± 0.1 | 1.97 ± 0.052 |
| GCUGUCACCGGUGCUUGGUACGUUAUAUUCAGCCGGUCUGAUGAGUCUACAGGGAGACGAAACAGC | 0.0799 ± 0.097 | 1.7 ± 0.032 | 0.604 ± 0.24 | 1.97 ± 0.029 |
| GCUGUCACCGGUGCUUGGUACGUUAUAUUCAGCCGGUCUGAUGAGUCUUCAGCGAGACGAAACAGC | 0.14 ± 0.042 | 1.912 ± 0.0054 | 0.669 ± 0.098 | 2.03 ± 0.023 |
| GCUGUCACCGGUGCUUGGUACGUUAUAUUCAGCCGGUCUGAUGAGUCUGCAGCGAGACGAAACAGC | 0.175 ± 0.0041 | 1.977 ± 0.016 | 0.0708 ± 0.18 | 2.03 ± 0.022 |
| GCUGUCACCGGUGCUUGGUACGUUAUAUUCAGCCGGUCUGAUGAGUCUACAGCGAGACGAAACAGC | 0.271 ± 0.031 | 1.82 ± 0.023 | 0.411 ± 0.034 | 2.01 ± 0.031 |

Source: the supplement of paper PMC6757056
